# Results as given in patent US20160039904A1, “STABILIZED SINGLE HUMAN CD4 DOMAINS AND FUSION PROTEINS” (priority 2013, published 2016).
# B1: m36.4: engineered single human antibody domain targeting a CD4i epitope on HIV-1 gp120, SEQ ID NO: 15 (antibody, V domains shown)
# VH: QVQLVQSGGGLVQPGGSLRLSCAASAFDFSDYEMSWVREAPGKGLEWIGEINDSGNTIYNPSLKSRVTISRDNSKNTLYLQMNTLRAEDTAIYYCAIYGGNSGGEYWGQGTLVTVSS
# Columns and labels:
# Format in all cases: cell-based
# HIV-1 JRFL = test: Pseudotyped HIV-1 neutralization (HOS-CD4-CCR5 cells); settings: Table 2, clade B, R5
# Protocol: (§1) To determine the potency and breadth of HIV-1 neutralization by the D1 mutants, viruses pseudotyped with Envs from HIV-1 isolates representing clades A-E and using either CCR5 (R5) or CXCR4 (X4) or both (R5X4) as a coreceptor were included. Pseudoviruses were derived from 293T cells and a neutralization assay was performed in duplicate using HOS-CD4-CCR5 (for all R5 and dual tropic viruses) or HOS-CD4-CXCR4 cell lines as described in Chen et al., Proc. Natl. Acad. Sci. USA, 105: 17121-17126 (2008)). Luminescence was measured 48 hours post-infection and the percentage neutralization was calculated by the following formula: (1—average RLU of inhibitor-containing wells/average RLU or virus-only wells)×100.
# HIV-1 Bal = test: as above; settings: Table 2, clade B, R5
# Protocol: as §1
# HIV-1 Env JRFL = test: HIV-1 Env-mediated cell-cell fusion; settings: Table 4, clade B, R5
# HIV-1 Env Bal = test: HIV-1 Env-mediated cell-cell fusion; settings: Table 4, clade B, R5
molecule,measurement,setting,value
B1,IC50,HIV-1 JRFL,18 nM
same,IC90,HIV-1 JRFL,106 nM
same,IC50,HIV-1 Bal,16 nM
same,IC90,HIV-1 Bal,75 nM
same,IC50,HIV-1 Env JRFL,128 nM
same,IC90,HIV-1 Env JRFL,1080 nM
same,IC90,HIV-1 Env Bal,235 nM
